Non-standard residues stand in square brackets, D forms with d. No end group written: not given here. pY = N[C@@H](Cc1ccc(OP(=O)(O)O)cc1)C(=O)O
Tests used:
[1] = target: isolated Fes SH2 domain, E469K/E472K (mutant EE/KK) (human, UniProt P07332-1 460-549, E469K | E472K); test: FP
[2] = target: isolated Fes SH2 domain, wild type (human, UniProt P07332-1 460-549); test: FP
[3] = target: isolated Fes SH2 domain, G463V (mutant G/V) (human, UniProt P07332-1 460-549, G463V (mutant G/V)); test: FP
[4] = target: human Fes SH2-kinase unit (residues I448 to the C terminus), unphosphorylated (human, UniProt P07332-1 448-822); test: FP; 1 mM ATP and 5 mM MgCl2
Chain of human Fes SH2-kinase unit (residues I448 to the C terminus), unphosphorylated (P07332 448-822): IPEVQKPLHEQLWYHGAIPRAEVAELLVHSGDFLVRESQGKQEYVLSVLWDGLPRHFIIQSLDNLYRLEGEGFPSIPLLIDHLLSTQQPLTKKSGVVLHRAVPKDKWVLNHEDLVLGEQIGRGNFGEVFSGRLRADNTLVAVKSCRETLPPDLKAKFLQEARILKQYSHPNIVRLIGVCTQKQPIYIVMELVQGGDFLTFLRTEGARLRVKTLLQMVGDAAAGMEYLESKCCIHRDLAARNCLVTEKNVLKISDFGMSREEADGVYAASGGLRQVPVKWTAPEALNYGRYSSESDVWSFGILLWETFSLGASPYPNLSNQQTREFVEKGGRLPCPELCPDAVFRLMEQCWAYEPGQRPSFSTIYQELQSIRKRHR

Measured: Kd

Chain of isolated Fes SH2 domain, wild type (P07332 460-549): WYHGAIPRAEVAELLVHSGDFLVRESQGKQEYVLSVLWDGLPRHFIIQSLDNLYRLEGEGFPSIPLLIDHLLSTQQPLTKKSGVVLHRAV
Chain of isolated Fes SH2 domain, G463V (mutant G/V) (P07332 460-549 G463V): as the sequence (P07332 460-549) above, with G4V counted along it
Chain of isolated Fes SH2 domain, E469K/E472K (mutant EE/KK) (P07332 460-549 E469K/E472K): as the sequence (P07332 460-549) above, with E10K, E13K counted along it

V[pY]EPVSY [pTyr-containing peptide from ezrin (VpYEPVSY)]
~400 nM: all assays above

From PMC2572732 (2008)
